Measurements taken from article PMC8635156, “Structural and Functional Analysis of SsaV Cytoplasmic Domain and Variable Linker States in the Context of the InvA-SsaV Chimeric Protein” (Microbiology Spectrum, 2021).

How the values were obtained:
[1] = biological target: the molecule itself; experiment: cryo-EM structure; single particle analysis of the GDN-solubilised chimera ISS (~10 mg/ml); C9 symmetry, 2.11 Å for the SsaVC part; TM and linker regions hardly visible
[2] = biological target: the molecule itself; experiment: SEC; gel filtration of purified cytoplasmic domains (Superdex 200 Increase 10/300 GL; 20 mM Tris-HCl pH 8.0, 150 mM NaCl); Fig. 1B at two salt concentrations (physiological and high salt); Fig. 4D wild type and variants

| Protein | stoichiometry N [1] | stoichiometry N [2] |
| --- | --- | --- |
| InvATM-SsaVL-SsaVC chimeric full-length protein (ISS) (other, InvA, Salmonella enterica serovar Typhimurium, transmembrane region: what is left when residues 316-685 are replaced (residues 1-315); SsaV, Salmonella enterica serovar Typhimurium, residues 326-682 (linker SsaVL and cytoplasmic domain SsaVC); Eluted from the Strep-Tactin beads after the SUMO tag was cleaved on the beads; also called InvATM-SsaVC chimera; chimeric ISS; source: E. coli BL21, …) MLLSLLNSARLRPELLILVLMVMIISMFVIPLPTYLVDFLIALNIVLAILVFMGSFYIDRILSFSTFPAVLLITTLFRLALSISTSRLILIEADAGEIIATFGQFVIGDSLAVGFVVFSIVTVVQFIVITKGSERVAEVAARFSLDGMPGKQMSIDADLKAGIIDADAARERRSVLERESQLYGSFDGAMKFIKGDAIAGIIIIFVNFIGGISVGMTRHGMDLSSALSTYTMLTIGDGLVAQIPALLIAISAGFIVTRVNGDSDNMGRNIMTQLLNNPFVLVVTAILTISMGTLPGFPLPVFVILSVVLSVLFYFIRRKKSVVSANGVEAPEKDSMVPGACPLILRLSPTLHSADLIRDIDAMRWFLFEDTGVPLPEVNIEVLPEPTEKLTVLLYQEPVFSLSIPAQADYLLIGADASVVGDSQTLPNGMGQICWLTKDMAHKAQGFGLDVFAGSQRISALLKCVLLRHMGEFIGVQETRYLMNAMEKNYSELVKELQRQLPINKIAETLQRLVSERVSIRDLRLIFGTLIDWAPREKDVLMLTEYVRIALRRHILRRLNPEGKPLPILRIGEGIENLVRESIRQTAMGTYTALSSRHKTQILQLIEQALKQSAKLFIVTSVDTRRFLRKITEATLFDVPILSWQELGEESLIQVVESIDLSEEELADNEE | 9 |  |
| SsaV cytoplasmic domain (SsaVC), residues 346-682 (domain or fragment, SsaV (SctV of the SPI-2 T3SS), Salmonella enterica serovar Typhimurium, residues 346-682 (cytoplasmic domain with the last residues of the linker); The His6 tag is thrombin-cleavable (pET15b); the purification as described names no cleavage step; also called SctVC of SPI-2; source: E. coli BL21, purified (Ni-NTA, Hitrap Q anion exchange, SEC)) MVPGACPLILRLSPTLHSADLIRDIDAMRWFLFEDTGVPLPEVNIEVLPEPTEKLTVLLYQEPVFSLSIPAQADYLLIGADASVVGDSQTLPNGMGQICWLTKDMAHKAQGFGLDVFAGSQRISALLKCVLLRHMGEFIGVQETRYLMNAMEKNYSELVKELQRQLPINKIAETLQRLVSERVSIRDLRLIFGTLIDWAPREKDVLMLTEYVRIALRRHILRRLNPEGKPLPILRIGEGIENLVRESIRQTAMGTYTALSSRHKTQILQLIEQALKQSAKLFIVTSVDTRRFLRKITEATLFDVPILSWQELGEESLIQVVESIDLSEEELADNEE |  | 9 |
